Experimental data as given in PMC7188994.

Biological target: SspA C314S mutant from Vibrio cyclitrophicus FF75 (Vibrio cyclitrophicus FF75)
Test: crystal structure; SspA C314S with cysteine substrate and PLP; hanging drop at 14°C, 1.8 M ammonium citrate pH 7.0; space group P6_(3)22, two molecules in each asymmetric unit; 1.80 Å

## SspA C314S mutant from Vibrio cyclitrophicus FF75 (from UniProt A0AAN0N811 1-211) (enzyme)
  stoichiometry N: 2
